According to patent US20220412960A1:

Target: PAR-1 receptor on human platelets (human) (UniProt P25116)
Assay: cell-based or functional assay

Chain of PAR-1 receptor on human platelets (human) (P25116 42-425): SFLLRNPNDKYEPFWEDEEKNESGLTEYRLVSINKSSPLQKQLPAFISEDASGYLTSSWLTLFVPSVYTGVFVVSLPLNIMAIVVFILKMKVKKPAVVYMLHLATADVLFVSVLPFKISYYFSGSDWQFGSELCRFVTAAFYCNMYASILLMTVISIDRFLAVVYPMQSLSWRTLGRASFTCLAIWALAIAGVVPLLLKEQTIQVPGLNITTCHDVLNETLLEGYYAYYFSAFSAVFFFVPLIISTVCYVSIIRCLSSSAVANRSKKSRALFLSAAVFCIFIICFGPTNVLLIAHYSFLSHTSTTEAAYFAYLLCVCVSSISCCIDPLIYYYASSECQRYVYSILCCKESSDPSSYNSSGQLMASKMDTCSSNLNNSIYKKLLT

## thrombin receptor agonist peptide TRAP-6
  platelet aggregation, light transmission aggregometry, washed platelets of sepsis patients at ICU admission, 10 µM TRAP-6: > 21.2%
  platelet aggregation, light transmission aggregometry, washed platelets of sepsis patients at ICU admission, 10 µM TRAP-6 (mean): 34.2%
